Sequences and labels used below:
B1: unnamed (protein)
chain 1: EVQLVESGGGLVQPGGSLRLSCAASGYVFTDYGMNWVRQAPGKGLEWMGWINTYIGEPIYADSVKGRFTFSLDTSKSTAYLQMNSLRAEDTAVYYCARGYRSYAMDYWGQGTLVTVSS
chain 2: DIQMTQSPSSLSASVGDRVTITCKASQNVGTNVAWYQQKPGKAPKALIYSASFLYSGVPYRFSGSGSGTDFTLTISSLQPEDFATYYCQQYNIYPLTFGQGTKVEIK
B2: unnamed (protein)
chain 1: QVQLQESGPGLVKPSQTLSLTCTVSGGSISSGDYFWSWIRQLPGKGLEWIGHIHNSGTTYYNPSLKSRVTISVDTSKKQFSLRLSSVTAADTAVYYCARDRGGDYYYGMDVWGQGTTVTVSS
chain 2: EIVLTQSPGTLSLSPGERATLSCRASQGISRSYLAWYQQKPGQAPSLLIYGASSRATGIPDRFSGSGSGTDFTLTISRLEPEDFAVYYCQQFGSSPWTFGQGTKVEIK
B3: unnamed (protein)
chain 1: EVQLVESGGGLVQPGGSLRLSCAASGYSFTGYYIHWVRQAPGKGLEWVARVIPNAGGTSYNQKFKGRFTLSVDNSKNTAYLQMNSLRAEDTAVYYCAREGIYWWGQGTLVTVSS
chain 2: DIQMTQSPSSLSASVGDRVTITCRSSQSLVHSNGNTFLHWYQQKPGKAPKLLIYTVSNRFSGVPSRFSGSGSGTDFTLTISSLQPEDFATYFCSQTTHVPWTFGQGTKVEIK
B4: unnamed (protein)
chain 1: QVQLVQSGAEVKKPGSSVKVSCKASGYTFTSYRMHWVRQAPGQGLEWIGYINPSTGYTEYNQKFKDKATITADESTNTAYMELSSLRSEDTAVYYCARGGGVFDYWGQGTLVTVSS
chain 2: DIQMTQSPSTLSASVGDRVTITCSASSSISYMHWYQQKPGKAPKLLIYTTSNLASGVPARFSGSGSGTEFTLTISSLQPDDFATYYCHQRSTYPLTFGQGTKVEVK
B5: unnamed (protein)
chain 1: QVQLQQSGAEVKKPGASVKVSCEASGYTFPSYVLHWVKQAPGQGLEWIGYINPYNDGTQYNEKFKGKATLTRDTSINTAYMELSRLRSDDTAVYYCARGFGGSYGFAYWGQGTLVTVSS
chain 2: DIQLTQSPSSLSASVGDRVTMTCSASSSVSSSYLYWYQQKPGKAPKLWIYSTSNLASGVPARFSGSGSGTDFTLTISSLQPEDSASYFCHQWNRYPYTFGGGTRLEIK
B6: unnamed (protein)
chain 1: QVQLVQSGAEVKKPGASVKVSCKVSGYTFTSYDINWVRQAPGKGLEWMGWIYPGDGSIKYNEKFKGRVTMTVDKSTDTAYMELSSLRSEDTAVYYCARRGEYGNYEGAMDYWGQGTLVTVSS
chain 2: DIQMTQSPSSLSASVGDRVTITCKASQSVDYDGHSYMNWYQQKPGKAPKLLIYAASNLESGVPSRFSGSGSGTDFTLTISSLQPEDFATYYCQQSDENPLTFGGGTKVEIK
B7: unnamed (protein)
chain 1: EVQLVESGGGLVQPGGSLRLSCAASGFTFSSYGMSWVRQAPGKGLELVASINSNGGSTYYPDSVKGRFTISRDNAKNSLYLQMNSLRAEDTAVYYCASGDYWGQGTTVTVSS
chain 2: DIVMTQSPLSLPVTPGEPASISCRSSQSLVYSNGDTYLHWYLQKPGQSPQLLIYKVSNRFSGVPDRFSGSGSGTDFTLKISRVEAEDVGVYYCSQSTHVPWTFGQGTKVEIK
B8: unnamed (protein)
chain 1: QVQLQESGPGLVKPSETLSLTCTVSGYSITGGYLWNWIRQPPGKGLEWIGYISYDGTNNYKPSLKDRVTISRDTSKNQFSLKLSSVTAADTAVYYCARYGRVFFDYWGQGTLVTVSS
chain 2: B7 chain 2 with L29I, Y31H, D35N, H39Q, F60L, S61Y, S94F, S96G, T97S
B9: unnamed (protein)
chain 1: EVQLVESGGGLVQPGGSLRLSCAASGFSLSNYYVTWVRQAPGKGLEWVGIIYGSDETAYATSAIGRFTISRDNSKNTLYLQMNSLRAEDTAVYYCARDDSSDWDAKFNLWGQGTLVTVSS
chain 2: AIQMTQSPSSLSASVGDRVTITCQASQSINNELSWYQQKPGKAPKLLIYRASTLASGVPSRFSGSGSGTDFTLTISSLQPDDFATYYCQQGYSLRNIDNAFGGGTKVEIK
B10: unnamed (protein)
chain 1: QVQLVQSGAEVKKPGASVKVSCKASGYTFTNHYMHWVRQAPGQGLEWMGIINPISGSTSNAQKFQGRVTMTRDTSTSTVYMELSSLRSEDTAVYYCARDIVDAFDFWGQGTMVTVSS
chain 2: AIQLTQSPSSLSASVGDRVTITCRASQGISSALVWYQQKPGKAPKLLIYDASSLESGVPSRFSGSGSGTDFTLTISSLQPEDFATYYCQQFNDYFTFGPGTKVDIK
B11: unnamed (protein)
chain 1: QVQLVESGGGVVQPGRSLRLSCAASGFTFSVYGMNWVRQAPGKGLEWVAIIWYDGDNQYYADSVKGRFTISRDNSKNTLYLQMNGLRAEDTAVYYCARDLRTGPFDYWGQGTLVTVSS
chain 2: EIVLTQSPDFQSVTPKEKVTITCRASQSIGSSLHWYQQKPDQSPKLLIKYASQSFSGVPSRFSGSGSGTDFTLTINSLEAEDAAAYYCHQSSSLPFTFGPGTKVDIK
B12: unnamed (protein)
chain 1: QVQLVQPGAEVVKPGASVKLSCKTSGYTFTSNWMHWVKQAPGQGLEWIGEIDPSDSYTNYNQNFQGKAKLTVDKSTSTAYMEVSSLRSDDTAVYYCARGSNPYYYAMDYWGQGTSVTVSS
chain 2: EIVLTQSPAIMSASPGERVTMTCSASSGVNYMHWYQQKPGTSPRRWIYDTSKLASGVPARFSGSGSGTDYSLTISSMEPEDAATYYCHQRGSYTFGGGTKLEIK
B13: unnamed (protein)
chain 1: QVQLVQSGAEVKKPGASVKVSCKASGYTFTRYGISWVRQAPGQGLEWMGWISTYSGNTNYAQKLQGRVTMTTDTSTSTAYMELRSLRSDDTAVYYCARRQLYFDYWGQGTLVTVSS
chain 2: EIVMTQSPATLSVSPGERATLSCRASQSVSSNLAWFQQKPGQAPRPLIYDASTRATGVPARFSGSGSGTDFTLTISSLQSEDFAVYYCQQYDNWPLTFGGGTKVEIK
B14: unnamed (protein)
chain 1: EVTLRESGPGLVKPTQTLTLTCTLYGFSLSTSDMGVDWIRQPPGKGLEWLAHIWWDDVKRYNPALKSRLTISKDTSKNQVVLKLTSVDPVDTATYYCARTVSSGYIYYAMDYWGQGTLVTVSS
chain 2: DIQMTQSPSSLSASVGDRVTISCRASQDIRNYLNWYQQKPGKAPKLLIFYTSKLHSGVPSRFSGSGSGTDYTLTISSLQPEDIATYYCQQGNTLPLTFGGGTKVEIK
B15: unnamed (protein)
chain 1: QIQLQQSGPEVVKPGASVKISCKASGYTFTDYYITWVKQKPGQGLEWIGWIYPGSGNTKYNEKFKGKATLTVDTSSSTAFMQLSSLTSEDTAVYFCANYGNYWFAYWGQGTQVTVSA
chain 2: DIVLTQSPASLAVSLGQRATISCKASQSVDFDGDSYMNWYQQKPGQPPKVLIYAASNLESGIPARFSGSGSGTDFTLNIHPVEEEDAATYYCQQSNEDPWTFGGGTKLEIK
B16: unnamed (protein)
chain 1: EVQLLESGGVLVQPGGSLRLSCAASGFTFSNFGMTWVRQAPGKGLEWVSGISGGGRDTYFADSVKGRFTISRDNSKNTLYLQMNSLKGEDTAVYYCVKWGNIYFDYWGQGTLVTVSS
chain 2: DIQMTQSPSSLSASVGDSITITCRASLSINTFLNWYQQKPGKAPNLLIYAASSLHGGVPSRFSGSGSGTDFTLTIRTLQPEDFATYYCQQSSNTPFTFGPGTVVDFR
B17: unnamed (protein)
chain 1: QVQLVQSGAEVKKPGASVKVSCKVSGYTLSDLSIHWVRQAPGKGLEWMGGFDPQDGETIYAQKFQGRVTMTEDTSTDTAYMELSSLKSEDTAVYYCATGSSSSWFDPWGQGTLVTVSS
chain 2: DIQMTQSPSSVSASVGDRVTITCRASQGISSWLAWYQQKPGKAPKLLIYGASNLESGVPSRFSGSGSGTDFTLTISSLQPEDFANYYCQQANSFPWTFGQGTKVEIK
B18: unnamed (protein)
chain 1: EVQLVESGGGLVEPGGSLRLSCAVSGFDFEKAWMSWVRQAPGQGLQWVARIKSTADGGTTSYAAPVEGRFIISRDDSRNMLYLQMNSLKTEDTAVYYCTSAHWGQGTLVTVSS
chain 2: SYELTQPPSVSVSPGQTARITCSGEALPMQFAHWYQQRPGKAPVIVVYKDSERPSGVPERFSGSSSGTTATLTITGVQAEDEADYYCQSPDSTNTYEVFGGGTKLTVL
B19: unnamed (protein)
chain 1: EVQLVESGGGLVKPGGSLRLSCAASGFTFSNYAMSWVRQTPEKRLEWVATISRSGSYSYFPDSVQGRFTISRDNAKNSLYLQMNSLRAEDTAVYYCARLGGYDEGDAMDSWGQGTTVTVSS
chain 2: DIVMTQTPLSLSVTPGQPASISCKSSQSLLESDGKTYLNWYLQKPGQSPQLLIYLVSILDSGVPDRFSGSGSGTDFTLKISRVEAEDVGVYYCLQATHFPQTFGGGTKVEIK

Substitutions are numbered along the chain they refer to.

This series is described as follows: patients with anti-drug antibodies; higher = more immunogenic.
On to B1, for which the “patients with anti-drug antibodies” value was 8%.

On to B2, for which the “patients with anti-drug antibodies” value is 0%.

On to B3, for which the “patients with anti-drug antibodies” value worked out at 0%.

Regarding B4, the “patients with anti-drug antibodies” value is 19%.

Take B5: the “patients with anti-drug antibodies” value came to 10%.

On to B6, for which the “patients with anti-drug antibodies” value is 0.9%.

For the protein B7, the “patients with anti-drug antibodies” value was found to be 0%.

As for B8, the “patients with anti-drug antibodies” value was found to be 0%.

Regarding B9, the “patients with anti-drug antibodies” value came to 1.8%.

Take B10: the “patients with anti-drug antibodies” value worked out at 5%.

In the case of B11, the “patients with anti-drug antibodies” value worked out at 0%.

For the protein B12, the “patients with anti-drug antibodies” value is 33%.

B13: the “patients with anti-drug antibodies” value was found to be 3%.

B14: the “patients with anti-drug antibodies” value amounted to 3%.

Turning to B15, the “patients with anti-drug antibodies” value stood at 35%.

B16: the “patients with anti-drug antibodies” value came out at 1.3%.

Turning to B17, the “patients with anti-drug antibodies” value came to 0.4%.

For B18, the “patients with anti-drug antibodies” value came to 0%.

Turning to B19, the “patients with anti-drug antibodies” value stood at 17%.
